Data: article PMC5895659, “Mechanistic and Structural Insights Into the Unique TetR-Dependent Regulation of a Drug Efflux Pump in Mycobacterium abscessus” (Frontiers in Microbiology, 2018)
Positions count from the first letter of the chain named.

Key:
[1] = biological target: T1, MAB_4384 (TetR regulator) (Mycobacterium abscessus subsp. …, UniProt B1MJU8 1-221); assay: EMSA; 280 nM probe; EMSA: 280 nM fluorescein probe, 1X TAE, 1 h, room temperature, 6% native PAGE in 1X TAE; SEC: 50 mM Tris-HCl pH 8, 200 mM NaCl, 5 mM beta-mercaptoethanol, 4 C; conditions: protein: recombinant; tags: Trx-His6 tag removed by TEV; residual Gly at N-terminus; chain copies: 4; label: 5' fluorescein; blunt
MAB_4384 (D14N/F57L) = biological target: T2, MAB_4384 (D14N/F57L) (Mycobacterium abscessus subsp. …, UniProt B1MJU8 1-221, D14N;F57L); assay: EMSA; fully abrogated; EMSA: 280 nM fluorescein probe, 1X TAE, 1 h, room temperature, 6% native PAGE in 1X TAE; SEC: 50 mM Tris-HCl pH 8, 200 mM NaCl, 5 mM beta-mercaptoethanol, 4 C; conditions: protein: recombinant; tags: Trx-His6 tag removed by TEV; residual Gly at N-terminus; chain copies: 2; label: 5' fluorescein; blunt
T2 sequence: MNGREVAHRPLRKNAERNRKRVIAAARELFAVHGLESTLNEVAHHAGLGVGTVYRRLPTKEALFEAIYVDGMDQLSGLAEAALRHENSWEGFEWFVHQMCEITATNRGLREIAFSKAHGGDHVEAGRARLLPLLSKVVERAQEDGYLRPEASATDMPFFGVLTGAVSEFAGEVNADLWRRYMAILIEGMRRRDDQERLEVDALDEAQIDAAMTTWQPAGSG

[2] = biological target: T1, MAB_4384 (TetR regulator); assay: competition; cold probe vs 280 nM labeled Probe 1; dose-dependent decrease; EMSA: 280 nM fluorescein probe, 1X TAE, 1 h, room temperature, 6% native PAGE in 1X TAE; SEC: 50 mM Tris-HCl pH 8, 200 mM NaCl, 5 mM beta-mercaptoethanol, 4 C; conditions: protein: recombinant; tags: Trx-His6 tag removed by TEV; residual Gly at N-terminus; chain copies: 4; blunt
[3] = biological target: T1, MAB_4384 (TetR regulator); assay: EMSA; comparable to Probe 1; EMSA: 280 nM fluorescein probe, 1X TAE, 1 h, room temperature, 6% native PAGE in 1X TAE; SEC: 50 mM Tris-HCl pH 8, 200 mM NaCl, 5 mM beta-mercaptoethanol, 4 C; conditions: protein: recombinant; tags: Trx-His6 tag removed by TEV; residual Gly at N-terminus; chain copies: 4; label: 5' fluorescein; blunt
[4] = biological target: the molecule itself; assay: SEC; ENrich SEC 650 column, 50 mM Tris-HCl pH 8, 200 mM NaCl, 5 mM beta-mercaptoethanol, 0.4 mL/min, 4 °C; MAB_4384 at 3.9 mg/mL; apparent mass from a calibration curve (42.6 kDa against 24.7 kDa theoretical)
[5] = biological target: MAB_4384 (TetR regulator) (Mycobacterium abscessus subsp. …, UniProt B1MJU8 1-221); assay: competition; excess non-related labeled probe; shift of Probe 1 maintained; EMSA: 280 nM fluorescein probe, 1X TAE, 1 h, room temperature, 6% native PAGE in 1X TAE; SEC: 50 mM Tris-HCl pH 8, 200 mM NaCl, 5 mM beta-mercaptoethanol, 4 C; conditions: protein: recombinant; tags: Trx-His6 tag removed by TEV; residual Gly at N-terminus; chain copies: 4; label: 5' fluorescein; blunt

B1: Probe 1 (IRS5/L5 operator) (dsDNA)
DNA 1: CACTTCGCCATAAGTGGATTGACTCTATCCACTTTTACCCATAGA
DNA 2: TCTATGGGTAAAAGTGGATAGAGTCAATCCACTTATGGCGAAGTG
- binding result [1]: binds
- binding result (MAB_4384 (D14N/F57L)): no binding

B2: Probe 1 unlabeled (dsDNA)
DNA 1: B1 DNA 1
DNA 2: B1 DNA 2
- binding result [2]: binds

B3: Probe 3 (flanks randomly changed) (dsDNA)
DNA 1: TCTGGATAAGCAAGTGGATTGACTCTATCCACTTCCGAAACCGAC
DNA 2: GTCGGTTTCGGAAGTGGATAGAGTCAATCCACTTGCTTATCCAGA
- binding result [3]: binds

B4: MAB_4384 TetR regulator (natural protein)
chain: T2 sequence with N14D, L57F
notes: MAB_4384, TetR family transcriptional repressor of Mycobacterium abscessus subsp. abscessus CIP104536T; amplified from genomic DNA with the MAB_4384_full primers; theoretical mass 24.7 kDa; the account of the structure (chain A modelled Asp14 to Thr213, first thirteen and last eight residues not visible) implies residues 1-221; also called wild-type MAB_4384; source: E. coli BL21 Rosetta 2 (DE3), …
- stoichiometry N [4]: 2

B5: Non-specific probe (dsDNA)
DNA 1: ATGGAACTTGAAGGACTGACCGCGTTG
DNA 2: CAACGCGGTCAGTCCTTCAAGTTCCAT
- binding result [5]: no binding
